Measured values taken from patent publication US20110027321.

Molecular target: blue casein substrate (4-16% BlueCasein zymogram gel, Novex)

B1: recombinant 6 histidine tagged C. trachomatis HtrA polypeptide (serovar L2), purified from E. coli BL21 (DE3) (pET28-CtHtrA/L2) (protein)
chain: SPMLGYSASKKDSKADICLAVSSGDQEVSQEDLLKEVSRGFSRVAAKATPGVVYIENFPKTGNQAIASPGNKRGFQENPFDYFNDEFFNRFFGLPSHREQQRPQQRDAVRGTGFIVSEDGYVVTNHHVVEDAGKIHVTLHDGQKYTAKIVGLDPKTDLAVIKIQAEKLPFLTFGNSDQLQIGDWAIAIGNPFGLQATVTVGVVSAKGRNQLHIVDFEDFIQTDAAINPGNSGGPLLNINGQVIGVNTAIVSGSGGYIGIGFAIPSLMAKRVIDQLISDGQVTRGFLGVTLQPIDSELATCYKLEKVYGALVTDVVKGSPAEKAGLRQEDVIVAYNGKEVESLSALRNAISLMMPGTRVILKIVREGKTIEIPVTVTQIPTEDGVSALQKMGVRVQNITPEICKKLGLAADTRGILVVAVEAGSPAASAGVAPGQLILAVNRQRVASVEELNQVLKNSKGENVLLMVSQGDVVRFIVLKSDHHHHHHE
  protease activity in zymogram gel (zone of clearing): Recombinant C. trachomatis HtrA degradation (i.e. proteolysis) of the blue casein substrate is visualized as a zone of clearing at ˜49 kDa
